In PMC9482650, “Quantitative fragmentomics allow affinity mapping of interactomes” (Nature Communications, 2022) one finds pKd data, which are given here for four molecules.

Among the targets are GRIP2_4, Q9C0E4; Inadl_1, Q8NI35; SCRIB_2, Q14160; MAGI1_2, Q96QZ7; LAP2, Q96RT1; TJP1_2, Q07157; GRID2IP_2, A4D2P6; Inadl_2, Q8NI35; DLG2_3, Q15700; DLG5_1, Q8TDM6; GRASP, Q7Z6J2; GOPC, Q9HD26.
Common to all, as to experiment: holdup assay
Common to all, as to parameters: key: below the threshold = too weak to quantify, mostly under pKd 3.1 to 4
Conditions in all cases: plain residues with an end cap or a label only (N-terminal biotin on a linker: ado-ado)

The next test addresses T1, HTRA3, P83110.
T1 sequence (P83110 354-453, limits assumed, looked up): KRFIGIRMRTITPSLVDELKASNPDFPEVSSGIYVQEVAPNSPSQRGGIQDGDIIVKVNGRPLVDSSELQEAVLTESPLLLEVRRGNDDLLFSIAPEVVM

Another test concerns the target T2, PARD3B_1, Q8TEW8.
T2 sequence (Q8TEW8 196-299, limits assumed, looked up): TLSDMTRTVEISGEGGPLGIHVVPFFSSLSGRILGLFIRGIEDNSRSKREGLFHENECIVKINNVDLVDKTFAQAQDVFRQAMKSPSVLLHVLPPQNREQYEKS

Another test deals with T3, GRIP1_2, Q9Y3R0.
T3 sequence (Q9Y3R0 145-248, limits assumed, looked up): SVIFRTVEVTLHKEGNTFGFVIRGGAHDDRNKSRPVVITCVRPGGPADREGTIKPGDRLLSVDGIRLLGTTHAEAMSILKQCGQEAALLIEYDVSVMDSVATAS

Another test concerns the target T4, MPDZ_12, O75970.
T4 sequence (O75970 1857-1958, limits assumed, looked up): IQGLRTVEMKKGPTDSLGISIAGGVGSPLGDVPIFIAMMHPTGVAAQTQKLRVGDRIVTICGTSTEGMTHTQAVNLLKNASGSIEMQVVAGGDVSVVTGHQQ

The next test deals with T5, DLG3_2, Q92796.
T5 sequence (Q92796 221-321, limits assumed, looked up): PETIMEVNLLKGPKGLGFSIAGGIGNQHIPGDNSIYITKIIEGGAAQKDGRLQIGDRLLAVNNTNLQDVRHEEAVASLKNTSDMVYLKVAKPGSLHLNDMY

In the next test the target is T6, MPP6, Q9NZW5.
T6 sequence (Q9NZW5 125-219, limits assumed, looked up): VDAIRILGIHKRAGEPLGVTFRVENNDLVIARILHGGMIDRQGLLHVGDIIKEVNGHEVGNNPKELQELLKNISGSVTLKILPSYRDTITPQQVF

For the next test, the target named is T7, SHANK1, Q9Y566.
T7 sequence (Q9Y566 658-767, limits assumed, looked up): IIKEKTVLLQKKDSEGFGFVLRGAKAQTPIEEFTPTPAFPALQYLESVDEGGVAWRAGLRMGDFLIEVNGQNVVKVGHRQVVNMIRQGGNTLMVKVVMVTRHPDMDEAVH

The target of a further test is T8, ARHGEF11, O15085.
T8 sequence (O15085 42-136, limits assumed, looked up): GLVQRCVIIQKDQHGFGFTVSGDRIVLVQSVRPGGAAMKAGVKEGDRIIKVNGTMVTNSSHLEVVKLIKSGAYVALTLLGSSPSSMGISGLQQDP

A further test addresses T9, APBA1_1, Q02410.
T9 sequence (Q02410 651-752, limits assumed, looked up): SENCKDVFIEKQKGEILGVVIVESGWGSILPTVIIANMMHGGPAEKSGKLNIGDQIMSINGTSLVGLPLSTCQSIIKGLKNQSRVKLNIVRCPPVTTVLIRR

The next test addresses T10, GRIP1_3, Q9Y3R0.
T10 sequence (Q9Y3R0 247-346, limits assumed, looked up): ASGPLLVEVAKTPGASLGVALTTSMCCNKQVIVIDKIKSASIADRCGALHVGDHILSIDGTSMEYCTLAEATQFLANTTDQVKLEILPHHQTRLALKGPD

For another test, the target named is T11, DLG3_3, Q92796.
T11 sequence (Q92796 374-475, limits assumed, looked up): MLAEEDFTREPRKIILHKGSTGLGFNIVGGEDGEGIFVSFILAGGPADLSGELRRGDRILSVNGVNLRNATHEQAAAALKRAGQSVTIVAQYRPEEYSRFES

A further test has as its target T12, APBA2_2, Q99767.
T12 sequence (Q99767 654-744, limits assumed, looked up): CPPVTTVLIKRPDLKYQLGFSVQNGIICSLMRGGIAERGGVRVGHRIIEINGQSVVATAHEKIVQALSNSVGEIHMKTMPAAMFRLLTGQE

Broadly, the pKd is the negative decadic logarithm of the Kd, by convention in mol/L.

Chain of GRASP, Q7Z6J2 (Q7Z6J2 96-193): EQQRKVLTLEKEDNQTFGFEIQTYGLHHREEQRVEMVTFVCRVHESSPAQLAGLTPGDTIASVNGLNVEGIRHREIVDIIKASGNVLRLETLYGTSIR
Chain of DLG5_1, Q8TDM6 (Q8TDM6 617-713): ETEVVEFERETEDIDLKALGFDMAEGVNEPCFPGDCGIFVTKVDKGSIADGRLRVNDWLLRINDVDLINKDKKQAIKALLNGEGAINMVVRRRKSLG
Chain of GRID2IP_2, A4D2P6 (A4D2P6 272-370): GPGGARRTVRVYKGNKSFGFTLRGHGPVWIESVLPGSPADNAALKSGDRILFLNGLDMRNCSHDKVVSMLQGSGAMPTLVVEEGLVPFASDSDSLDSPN
Chain of MAGI1_2, Q96QZ7 (Q96QZ7 456-580): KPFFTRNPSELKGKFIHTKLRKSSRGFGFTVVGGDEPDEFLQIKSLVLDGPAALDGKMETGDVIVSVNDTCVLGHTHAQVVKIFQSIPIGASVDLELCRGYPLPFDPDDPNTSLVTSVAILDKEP
Chain of Inadl_1, Q8NI35 (Q8NI35 113-229): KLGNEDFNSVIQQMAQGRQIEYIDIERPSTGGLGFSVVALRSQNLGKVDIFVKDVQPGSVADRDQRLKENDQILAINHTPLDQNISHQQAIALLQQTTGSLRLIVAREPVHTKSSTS
Chain of LAP2, Q96RT1 (Q96RT1 other isoform, or with tags, fused parts or gaps): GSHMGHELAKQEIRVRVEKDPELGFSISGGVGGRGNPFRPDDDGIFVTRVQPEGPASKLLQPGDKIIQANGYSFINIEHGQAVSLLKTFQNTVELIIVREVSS
Chain of SCRIB_2, Q14160 (Q14160 857-960): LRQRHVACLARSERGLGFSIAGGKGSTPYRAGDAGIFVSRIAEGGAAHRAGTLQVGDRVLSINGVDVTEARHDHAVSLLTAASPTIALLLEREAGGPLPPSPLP
Chain of Inadl_2, Q8NI35 (Q8NI35 238-335): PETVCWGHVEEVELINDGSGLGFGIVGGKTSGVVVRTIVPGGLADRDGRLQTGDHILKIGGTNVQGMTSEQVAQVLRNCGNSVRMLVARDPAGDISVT
Chain of GRIP2_4, Q9C0E4 (Q9C0E4 446-548): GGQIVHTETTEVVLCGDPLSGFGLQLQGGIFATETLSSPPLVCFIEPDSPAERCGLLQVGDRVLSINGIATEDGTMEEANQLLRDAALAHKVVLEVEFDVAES
Chain of TJP1_2, Q07157 (Q07157 181-274): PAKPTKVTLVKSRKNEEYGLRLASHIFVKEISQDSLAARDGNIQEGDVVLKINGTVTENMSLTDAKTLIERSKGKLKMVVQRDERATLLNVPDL

As to EGGKKRESEA [APPL1, Q9UKG1], the pKd entry was “below the threshold” with HTRA3, P83110; “below the threshold” with GRIP2_4, Q9C0E4; “below the threshold” with Inadl_1, Q8NI35; “below the threshold” with PARD3B_1, Q8TEW8; “below the threshold” with SCRIB_2, Q14160; “below the threshold” with MAGI1_2, Q96QZ7. Also, the pKd entry in the test with GRIP1_2, Q9Y3R0 was “below the threshold”; in the test with MPDZ_12, O75970, 3.54; in the test with LAP2, Q96RT1, 3.59; with DLG3_2, Q92796, 4.22; in the test with TJP1_2, Q07157, “below the threshold”; with GRID2IP_2, A4D2P6, “below the threshold”. Also, the pKd result with MPP6, Q9NZW5 was “below the threshold”; with Inadl_2, Q8NI35, “below the threshold”; with SHANK1, Q9Y566, “below the threshold”; in the test with DLG2_3, Q15700, 3.73; in the test with ARHGEF11, O15085, “below the threshold”; with APBA1_1, Q02410 it was “below the threshold”. In addition, the pKd entry with GRIP1_3, Q9Y3R0 is “below the threshold”; with DLG3_3, Q92796, “below the threshold”; in the test with APBA2_2, Q99767, “below the threshold”; in the test with DLG5_1, Q8TDM6, “below the threshold”; with GRASP, Q7Z6J2 it was “below the threshold”; with GOPC, Q9HD26, “below the threshold”.
As for PKLMGVETVV [DUSP10, Q9Y6W6], the negative-log Kd (pKd) entry with HTRA3, P83110 was “below the threshold”; with GRIP2_4, Q9C0E4 it was “below the threshold”; with Inadl_1, Q8NI35, “below the threshold”; with PARD3B_1, Q8TEW8 it was “below the threshold”; in the test with SCRIB_2, Q14160, 3.98; with MAGI1_2, Q96QZ7, 4.14. The pKd result in the test with GRIP1_2, Q9Y3R0 was “below the threshold”; with MPDZ_12, O75970 it was “below the threshold”; with LAP2, Q96RT1, 4.03; with DLG3_2, Q92796 it was 5.2; with TJP1_2, Q07157 it was 3.67; with GRID2IP_2, A4D2P6, “below the threshold”. Also, the negative-log Kd (pKd) is 3.82 with MPP6, Q9NZW5; “below the threshold” with Inadl_2, Q8NI35; “below the threshold” with SHANK1, Q9Y566; 4.21 in the test with DLG2_3, Q15700; 4 with ARHGEF11, O15085; “below the threshold” with APBA1_1, Q02410. Also, the pKd entry is “below the threshold” with GRIP1_3, Q9Y3R0; 3.91 with DLG3_3, Q92796; “below the threshold” with APBA2_2, Q99767; “below the threshold” in the test with DLG5_1, Q8TDM6; 3.78 in the test with GRASP, Q7Z6J2; 4.25 in the test with GOPC, Q9HD26.
On to PEEGKKQSQC [GAGE12J, A6NER3], for which the pKd result is given as “below the threshold” with HTRA3, P83110; “below the threshold” in the test with GRIP2_4, Q9C0E4; “below the threshold” in the test with Inadl_1, Q8NI35; “below the threshold” in the test with PARD3B_1, Q8TEW8; “below the threshold” with SCRIB_2, Q14160; “below the threshold” in the test with MAGI1_2, Q96QZ7. In addition, the negative-log Kd (pKd) entry in the test with GRIP1_2, Q9Y3R0 is “below the threshold”; with MPDZ_12, O75970 it was “below the threshold”; with LAP2, Q96RT1 it was “below the threshold”; with DLG3_2, Q92796, 4.04; with TJP1_2, Q07157 it was “below the threshold”; in the test with GRID2IP_2, A4D2P6, 3.49. The pKd result with MPP6, Q9NZW5 is “below the threshold”; in the test with Inadl_2, Q8NI35 it was “below the threshold”; with SHANK1, Q9Y566 it was “below the threshold”; with DLG2_3, Q15700, 3.61; with ARHGEF11, O15085 it was 3.62; with APBA1_1, Q02410, “below the threshold”. The negative-log Kd (pKd) result was “below the threshold” with GRIP1_3, Q9Y3R0; “below the threshold” with DLG3_3, Q92796; “below the threshold” in the test with APBA2_2, Q99767; “below the threshold” with DLG5_1, Q8TDM6; “below the threshold” with GRASP, Q7Z6J2; “below the threshold” with GOPC, Q9HD26.
Take QLAEIAESGL [ITK, Q08881]: the negative-log Kd (pKd) entry in the test with HTRA3, P83110 was “below the threshold”; with GRIP2_4, Q9C0E4 it was 3.49; with Inadl_1, Q8NI35 it was “below the threshold”; with PARD3B_1, Q8TEW8, 3.63; with SCRIB_2, Q14160 it was 3.6; with MAGI1_2, Q96QZ7, “below the threshold”. In addition, the negative-log Kd (pKd) result in the test with GRIP1_2, Q9Y3R0 was “below the threshold”; with MPDZ_12, O75970, 3.53; in the test with LAP2, Q96RT1 it was “below the threshold”; with DLG3_2, Q92796, “below the threshold”; with TJP1_2, Q07157 it was “below the threshold”; in the test with GRID2IP_2, A4D2P6 it was 3.61. The pKd result in the test with MPP6, Q9NZW5 is “below the threshold”; in the test with Inadl_2, Q8NI35, “below the threshold”; with SHANK1, Q9Y566, 3.76; with DLG2_3, Q15700, “below the threshold”; in the test with ARHGEF11, O15085 it was 4.05; with APBA1_1, Q02410, 3.52. Moreover, the pKd result was “below the threshold” in the test with GRIP1_3, Q9Y3R0; 3.55 with DLG3_3, Q92796; 3.48 in the test with APBA2_2, Q99767; 3.78 with DLG5_1, Q8TDM6; 3.69 with GRASP, Q7Z6J2; 3.73 with GOPC, Q9HD26.
